By pIC50 is commonly meant the IC50 on a negative log10 scale, so that one unit is a factor of ten. Read a high pIC50 as a low IC50. The term pKd denotes −log10 of the Kd, conventionally taken in molar units. The term koff denotes the rate constant with which the complex falls apart. One may read the kon as the second-order rate constant of association. A lower kon goes with slow association.

pIC50, pKd: −log10 of the molar value.

Experimental findings from patent US20200123233A1 are described below.

In experiment [1] the target is FTM-NN (membrane anchorless form of the Long fusion protein, 70 kDa) (human respiratory syncytial virus, strain Long) (UniProt P12568).
In experiment [2] the target is F protein of hRSV strain B-1 (human respiratory syncytial virus, strain B-1 (ATCC VR-1580)) (UniProt P13843). The experiment is described as follows: cell-based or functional assay.
Experiment [3] addresses F protein of hRSV strain Long (human respiratory syncytial virus, strain Long (ATCC VR-26)) (UniProt P12568). The experiment is described as follows: cell-based or functional assay.
The target in experiment [4] is F protein of RSV A-2 (human respiratory syncytial virus, strain A-2) (UniProt P03420). The experiment is described as follows: cell-based or functional assay.
Experiment [5] addresses F protein of RSV B-1 (human respiratory syncytial virus, strain B-1) (UniProt P13843). The experiment is described as follows: cell-based or functional assay.
Experiment [6] concerns the target F protein of RSV Long (RSV LONG M-2) (human respiratory syncytial virus, strain Long) (UniProt P12568). Description: cell-based or functional assay.
The target in experiment [7] is FTM-NN (membrane anchorless form of the Long fusion protein, 70 kDa) (human respiratory syncytial virus, strain Long) (UniProt P12568). The experiment is described as follows: SPR (Biacore), FTM-NN immobilised.

For the substance 101F Fab (WO 06/050280), the pIC50 in experiment [1] is 8.95.

The substance “Numax Fab (Motavizumab or MEDI-524; WO 06/050166)” had a pIC50 in experiment [1] of 10.07.

In experiment [2], “Synagis (Palivizumab, MedImmune, humanized monoclonal antibody)” returned a Neutralization IC50 (nM), B-1 (first assay) of 2.1 nM and a Neutralization IC50 (nM), B-1 (second assay) of 2.9 nM. In experiment [3], this substance showed a Neutralization IC50 (nM), Long (first assay) of 7.3 nM and a Neutralization IC50 (nM), Long (second assay) of 6 nM.

In experiment [1], Synagis Fab had a pIC50 of 9.22.

The substance “Synagis® (Palivizumab, MedImmune, humanized monoclonal antibody)” gave an RSV neutralization IC50 (nM) (n = 2), A-2 in experiment [4] of 2.5 nM. Also, the RSV neutralization IC50 (nM) (n = 2), B1 in experiment [5] came out at 1.7 nM. In experiment [6], the RSV neutralization IC50 (nM) (n = 2), Long is 4 nM. Besides, in experiment [7], the pKd is 9.19, the koff turned out to be 0.00018 s⁻¹ and the kon turned out to be 280000 M⁻¹ s⁻¹.
